Several values for one entry are separate records, joined by “and”; a condition that tells them apart may be missing. Identical values can stand only once. Entries after “also recorded” stand apart in the source; their conditions may differ. Each block holds one molecule with its values, some of them ahead of it.
What was measured:
GAP65 transcript = test: GAP65 silencing by in vivo injections of GAP65 dsRNA (RNAi) to intermolt crayfish; set-up: species or system Cherax quadricarinatus
Description: Relative GAP65 transcript levels in the gastrolith epithelial disc following silencing using GAP65 dsRNA were measured using realtime RT-PCR and presented in FIG. 4. GAP65 levels were evaluated in crayfish injected with ecdysone and GAP65 dsRNA, ecdysone and dsRNA carrier, ecdysone and C. quadricarinatus vitellogenin (CqVg) dsRNA, and a control injected with both carriers. CqVg an hepatopancreatic specific gene found mostly in reproductive females, served as a control for sequence specific silencing. […] In the crayfish injected with ecdysone and CqVg dsRNA, GAP65 transcript levels were similar to the levels detected in the ecdysone and dsRNA carrier injected group. In the control carriers injected crayfish GAP65 transcript levels were higher than the levels found in the ecdysone and GAP65 dsRNA injected crayfish but lower than the levels detected in both the ecdysone and dsRNA injected, and the ecdysone CqVg dsRNA injected crayfish.
In order to test the role of GAP65 in gastrolith formation, an RNAi (RNA interference) technique using in vivo injections of GAP65 dsRNA to intermolt crayfish was applied. The initiation of gastrolith formation was achieved by injection of ecdysone. In FIG. 5 gastrolith of crayfish injected with either ecdysone+GAP65 dsRNA, ecdysone+dsRNA carrier, or with carriers of both ecdysone and dsRNA can be seen. FIG. 5A is a lateral view of a representative gastrolith dissected from each treatment group. […] In the control carriers injected the gastrolith appeared undeveloped or in an initial growth stage. […] The control carrier gastrolith was too small to be detected by the X-ray imaging.
Scanning electron microscope (SEM) images of gastroliths dissected from crayfish injected with GAP65 dsRNA and ecdysone, and from crayfish injected only with ecdysone and dsRNA carrier, are presented in FIG. 6. FIG. 6A-B depict images of a cross section through the central part of the gastrolith. […] The dense mineral layered structure observed in the gastrolith of ecdysone and carrier injected is replaced with a loosely packed columnar mineralization structure, which resembles hollow straws, in the gastrolith of ecdysone and GAP65 dsRNA injected crayfish.

GAP10 transcripts = test: in vivo silencing of GAP10 transcripts during premolt; set-up: species or system C. quadricarinatus
Description: In order to examine the effect of in vivo silencing of GAP10 transcripts during premolt, intermolt males (MMI=0), each weighing 5-10 g were divided to four groups. Ten animals were injected daily with both ecdysone, and dsRNA of GAP 10; eight were injected with ecdysone; six were injected with both ecdysone and dsRNA of CqVg; and four were injected with ecdysone carrier only, i.e., 10% ethanol in Diethyl pyrocarbonate-treated doubly distilled water. Injections were given into the sinus of the first abdominal segment. For each individual crayfish the experiment was terminated at MMI=0.1, at which time the animal was anesthetized and its gastroliths were dissected out. Premolt duration was defined as the number of days until termination. […] Another group was injected with ecdysone and CqVg dsRNA (a hepatopancreatic-specific gene found mostly in reproductive females) and served as a control for sequence-specific silencing.
For analysis of the gastrolith surface roughness, optical phase interference microscopy (OPIM) analysis was used, providing topographic images of representative surface samples from each group (FIG. 37B).

C. quadricarinatus = conditions: cited from earlier work
[1] = in vitro calcium carbonate precipitation assay testing the stabilization of ACC; type: physicochemical; conditions: for form of calcium carbonate precipitated in the presence of the additive: in vitro precipitation from calcium salt and carbonate
From the text: Analysis of the product may comprise testing the resultant CaCO3 by various methods (as XRD, electron diffraction, SEM) to verify its amorphous nature. […] The phosphate peak at 950 cm^−1, is proportional to the phosphate content in the sample. Yet, the ratio between 1080 to 950 cm^−1 is proportional, but not directly indicative of the CO3^2−/[…] ratio.
FIG. 7 presents precipitation results of calcium carbonate in the presence of GAP65 and in the presence of other protein (trypsin). SEM images in FIG. 7A indicate the distinct polymorph of calcium carbonate in each treatment.
(§1) 100 μl of 1M CaCl2 was added to 10 ml double distilled water (final concentration: 10 mM). 80 μl from the protein extraction solution (1.2 μg/μl) were added (final concentration ˜10 μg/ml), 100 μl of 1M Na2CO3 (final concentration: 10 mM) was added following an intensive shaking. The vial was centrifuged for 5 min at 4000 rpm, the precipitate was smeared over a glass slide and instantly dried with air flow. […] The observations were confirmed by Raman spectroscopy.
100 μl of 1M CaCl2 were added to 10 ml double-distilled water (DDW), attaining the final concentration of […]. 200 μl of P-serine (P-Ser) solution (100 mM) were added to the solution, attaining 2 mM of P-Ser. 100 μl of 1M Na2CO3 (final concentration: 10 mM) were added following an intensive shaking. The vial was centrifuged for 5 min at 4000 rpm at room temperature. The upper solution was removed and the precipitation was smeared over a glass slide and instantly dried by air flow.

[2] = stability of ACC held at room temperature, tested by Raman spectroscopy; type: physicochemical
Description: The precipitated calcium carbonate was checked over long periods for the amorphous/crystalline state.
as §1

[3] = calcium binding on nitrocellulose membrane after SDS-PAGE; conditions: gastrolith protein fraction transferred to nitrocellulose membrane
Description: FIGS. 33A-B. relate to the identification of GAP10 and characterization of its phosphorylation and calcium-binding properties; FIG. 33A, left: SDS-PAGE stained with Coomassie blue; middle: Staining of the same gel for phosphoproteins; right: transfer of the same fraction to a nitrocellulose membrane and incubation with […]. Spots identified as GAP10 by LC-MS are circled. Abbreviations: PC (positive control).
(§2) Proteins that were both phosphorylated and calcium-binding were prepared for LC-MS. Two of them, migrating at apparent molecular masses of ˜9 and ˜11 kDa (circled), were identified as GAP10 (FIG. 33B), and their pIs were calculated as 5 and 5.5, respectively. Since GAP10 has a mildly acidic pI, it is negatively charged at the pH of the gastrolith pouch, which is approximately 8.7.

[4] = isoelectric focusing then SDS-PAGE of gastrolith protein fraction; type: physicochemical; conditions: two spots of ~9 and ~11 kDa identified as GAP10, respectively
Description: as §2

Molecule: C[C@H]([C@H](O)CCC(C)(C)O)[C@H]1CC[C@@]2(O)C3=CC(=O)[C@@H]4C[C@@H](O)[C@@H](O)C[C@]4(C)[C@H]3CC[C@]12C [ecdysone]
gastrolith spherule size (GAP65 transcript; SEM x15000): 40-60 nm | gastrolith structure by SEM (GAP65 transcript; cross section through central part of gastrolith): normal gastrolith appearance | gastrolith morphology (GAP65 transcript; dissected gastrolith, lateral view, gastrolith formation initiated by ecdysone): normal with no deformities | gastrolith mineral density by X-ray imaging (GAP65 transcript; dorsal X-ray view prior to dissection): normal with no effects on mineral densities | Swedish height (SH) of gastrolith surface (GAP10 transcripts; OPIM topographic images): 4.4±0.5 μm | average premolt duration (number of days until reaching MMI=0.1) (GAP10 transcripts; repeated daily injections to intermolt males, dsRNA given together with ecdysone): 10.1 days | gastrolith surface appearance (GAP10 transcripts; top view of dissected gastroliths): fairly smooth | typical induced premolt duration until ecdysis (C. quadricarinatus; known for ecdysone administration): 10 to 14 days | peak observed molt mineralization index (MMI) (C. quadricarinatus; reached 1-2 days before the molt event): 0.125-0.145

B1: GAP65: Negatively charged glycoprotein of about 65 kDa from Cherax quadricarinatus gastrolith, SEQ ID NO. 1; used as enriched DEAE fraction 17 (protein, listed as Cherax quadricarinatus)
chain: MIRRVTTPLLALLLAGWVVAQTTDMDPEQYCARRDDEYFRKDFGDPAEFASDYRANCGVYYRCVPAPAGKRSISASQCQSELFFDVQQQICERKSKVTNCEQIDKEHPPQPFWPLREGEESQCKSGEIMCGSGECLPQHRFCDENSDCADGSDENICTPDKDPNRADVCEPRTCLWSQGCFCSVDGTRIPGDLTVDQTPQMITITFTGAINERNFRIFQDVFKDTVKHKGNDCTPKGTFFISHGFSNYSAIQELNRVGHEIAVSSITNNDNPDYWSKLSALDYEAEMDGARLIIEKFANITANEVLGIRVPKQRVGGNRQFRMMVDWGFLYDSSISAPMGRLPLWPYTLMHRMPHKCLGNDQNCPSQNFTVWEMVINEMDRRDDPQFDERLTGCHFVDQCANIQSPEQFRAFLDNNLARHYRTNRAPLGLHFTSGYFETRRDFLREFVKWVRETALSGDYFFVTMQQVINWMEAPTELTAINNFQEWKGKCEVKGQPYCSLPNPCPKKVPRIFPNEEEMFLYTCMECPNTYPWLGDPHGNGFLDIPDF
ACC share of the total CaCO3 ([1]; 10 mM CaCl2, 10 mM Na2CO3, ~10 μg/ml protein, estimated): at least 50% | Raman spectroscopy (RS) of the CaCO3 precipitate ([1]; after precipitation and drying, broad peak about 1080 cm^-1 indicates ACC): distinct spectra of ACC | form of calcium carbonate precipitated in the presence of the additive ([1]; SEM): amorphous CaCO3; also recorded: amorphous form (ACC) | CaCO3 deposits characterized by polarized microscope ([1]; precipitation in the presence of GAP65, confirmed by Raman spectroscopy): mixture of calcite, vaterite, and ACC | Raman spectra (around the 1085 peak) compared with calcite ([2]; 6.5-month old ACC, room temperature): mixture seemingly comprising ACC and vaterite | nanosphere size of ACC ([2]; SEM 40 days after the precipitation): 50-500 nm | time the ACC remained stable (amorphous state kept) ([2]; room temperature, Raman spectra): at least 1 months

B2: trypsin: Other (inert) protein used in equivalent amount as control in the precipitation assay (protein, UniProt P00760 24-246, looked up)
Serine protease 1: IVGGYTCGANTVPYQVSLNSGYHFCGGSLINSQWVVSAAHCYKSGIQVRLGEDNINVVEGNEQFISASKSIVHPSYNSNTLNNDIMLIKLKSAASLNSRVASISLPTSCASAGTQCLISGWGNTKSSGTSYPDVLKCLKAPILSDSSCKSAYPGQITSNMFCAGYLEGGKDSCQGDSGGPVVCSGKLQGIVSWGSGCAQKNKPGVYTKVCNYVSWIKQTIASN
form of calcium carbonate precipitated in the presence of the additive ([1]; SEM): rapid crystallization | size of calcium carbonate crystals formed ([1]; same conditions, control protein, SEM): 10 μm

calcium binding [3]: calcium-binding ability
B3: GAP10: Gastrolith protein of Cherax quadricarinatus, calculated 10 kDa, SEQ ID NO. 24 (fragment SEQ ID NO. 25) (protein, listed as Cherax quadricarinatus)
chain: MKIFILLVVIGVVSAQLGAGQVGGAAPAQGAGGAAGVGGPGAAPVNPYGPKVYGSGLNNPFAFPHNTWEVSRAAAVAATNPNLYVRVESDGGWEFTNRFGEKVDVYNSFGQELD
pI [4]: 5 and 5.5

Source: patent US10328100B2 (Amorphical Ltd., priority 2007, dated 2019)
